According to the DeepSol protein solubility set:

Test: soluble on expression in E. coli; label from the status in PepcDB or PDB records

Sequence	soluble on expression in E. coli
MGSDKIHHHHHHPSLTCVMEGKDIEDWSCCPTPWTSFQSSCYFISTGMQSWTKSQKNCSVMGADLVVINTREEQDFIIQNLKRNSSYFLGLSDPGGRRHWQWVDQTPYNENVTFWHSGEPNNLDERCAIINFRSSEEWGWNDIHCHVPQKSICKMKKIYI	not soluble
MGTHSGHERNGESARGGALQRLERRLAAAWAEQDAYQIEQLAGMIYDRLVRSDPSAAATVLEQNAHRLAVAGKPAEAAELATRLIRHWRELEQRPFYLARLQQMVLEPLQALSGVEAARARTMVLEAVLAWKRASATVDTEEAAPAELAPVQDALVDAYVLCGEWARAQYQVVCRGGPAERDLAFIDEQLGPHLANDVERMLARTRLVLFYVLAGNLKAGRALVEEIQRKHPTAPMTNFVVILMQVLERARNVDSSKRRLLRNFCDDLKRVYHWAFSLDPELDAMLDDVLKAQGL	not soluble
METKDLIVIGGGINGAGIAADAAGRGLSVLMLEAQDLACATSSASSKLIHGGLRYLEHYEFRLVSEALAEREVLLKMAPHIAFPMRFRLPHRPHLRPAWMIRIGLFMYDHLGKRTSLPGSTGVRFGADSVLKPEIVRGFEYSDCWVDDARLVLANAQMVVRKGGEVLTRTRATAARRENGLWIVEAEDIDTGKKYVWQARGLVNATGPWVKQFFDEGMHLPSPYGIRLIKGSHIVVPRVHNQKQAYILQNEDKRIVFVIPWMEEFSIIGTTDVEYKGDPKAVKIEESEINYLLKVYNAHFQKQLGRDDIVWTYSGVRPLCDDESDSPQAITRDYTLDIHDENGKAPLLSVFGGKLTTYRKLAEHAMEKLASYYPGIGPAWTKTCVLPGGDIDGSREDYAAKLRRRYPFLTESLARHYSRTYGSNTEWILGEATSLLDLGEDFGHEFYEAELKYLVDHEWVRRTEDAIWRRTKEGMWLTAEQQSRITQWLAAYVEKHQLSMAS	not soluble
MTGMRKTLKATLAEARAQVEAALKEEGFGILTEIDVAATLKAKLGLEKPPYLILGACNPNLAARALEALPEIGLLLPCNVVLREAEEGVEVLIQDPKEMFRVLPEATQRALAPVAEEARTRLSRALSRL	soluble
MISQVRIMDVIKPLGSFIQQDGMPVFGHLSAIPRSLDLESFQYLNEMDNPVSKWRKHFDYKQFQFVSLVTPDYVVGIAIADIRYLASGFCYLFDIKRNALTEQQWLKPCQLGYQTQPSSWLSKAHLANNTIQFSIEEGQWHVQFVTPSVNANITLHPQPQSLPLMLSTPTGYSGWTYTQKHNAMTVTGNLFILGEEQDLSQVAAGYDFSAGYMRRETSWRWASINHKDGDKSLGLNLAAGVNETGFCENVLWVDGERHLLNPVQFQFSRQNPRTDWRITSEDGCVDLVFEPINQRSEKKNFWFLKSNFRQYIGHFSGFVVDGNGSKHELDGVVGLTEDHYAKW	not soluble
MSNFEKKYILELNDALSHLNHNSTSFDLLKVLISWLSNDIVIDKFKILGYDFSKYIEMNPDDYPVEKSILNREEIIYLKNNIYRKISSGNFKFQYFVQYIRDILEYLFIEHIERVCPYCEWGEMQKLEEQNTHETVYLCTQCGCAFYNDNSQFLLKTPLTIPMKRDEFK	not soluble
SGSAARQPLFSFGVIADVQYADISDGRSFLGVPRYYRNSILVLQRAVETWNQHGNLKFVINMGDIVDGFCPKDQSLAATKKLVHEFEKFNGPVYHMIGNHCLYNLPREELLPLLKIPGRDGNAYYDFSPTPEYRVVVLDGYDISAVGWPQEHPNTIAALKILEEKNPNTDKNSPAGLEDVARRFVKYNGGVGEKQLQWLDSVLQDASNSNQRVIVCGHVPMSPGVASKAALLWNFDEVMNIIHKYDSVKVCLSGHDHKGGYFVDSHGVHHRSLEAALECPPGTYSFGYIDVYDNKLSLVGTDRMQSTDFEN	soluble
MGSDKIHHHHHHMKTLAQNIQEKLKASGLTQKELAERANISQVMVHKLISGKAKESSKLVAIAGVLGCTAEELMYGLEKHVPTSNAEWAGPMETWDSNTPLNDDEVEIPFYMEVELAAGHGIAEASEYHGPKLRFAKSTLRKSSVDPTNAACVRVSGNSMEPVLPSGSTVGVDTSQTDVIDGKMYAINHDGMLRVKTLYKLPGGGLRLRSYNIDEWPDERYEGEAIKQIKIIGKVFWYSVLM	not soluble
MGGSHHHHHHGMASALAMAPSPSLVQVYTSPAAVAVWEWQDGLGTWHPYSATVCSFIEQQFVQQKGQRFGLGSLAHSIPLGQADPSLAPYIIDLPSWTQFRQDTGTMRAVRRHLFPQHSAPGRGVVWEWLSDDGSWTAYEASVCDYLEQQVARGNQLVDLAPLGYNYTVNYTTHTQTNKTSSFCRSVRRQAGPPYPVTTIIAPPGHTGVACSCHQCLSGSRTGPVSGRYRHSMTNLPAYPVPQHPPHRTASVFGTHQAFAPYNKPSLSGARSAPRLNTTNAWGAAPPSLGSQPLYRSSLSHLGPQHLPPGSSTSGAVSASLPSGPSSSPGSVPATVPMQMPKPSRVQQALAGMTSVLMSAIGLPVCLSRAPQPTSPPASRLASKSHGSVKRLRKMSVKEATPKPEPEPEQVIKNYTEELKVPPDEDCIICMEKLSTASGYSDVTDSKAIGSLAVGHLTKCSHAFHLLCLLAMYCNGNKDGSLQCPSCKTIYGEKTGTQPQGKMEVLRFQMSLPGHEDCGTILIVYSIPHGIQGPEHPNPGKPFTARGFPRQCYLPDNAQGRKVLELLKVAWKRRLIFTVGTSSTTGETDTVVWNEIHHKTEMDRNITGHGYPDPNYLQNVLAELAAQGVTEDCLEQQ	not soluble
MITFQEFVNYWFEAYAKIAVKQSTQKRYRELLIPAIKAIGTKPLSDIKPLDIQKIYMNLTGKLSDSTILKLHRLLHEIFKHAVMWEYISDNPVKKVLPPSPELEHHHHHH	soluble
MISILRRGLLVLLAAFPLLALAVQTPHEVVQSTTNELLGDLKANKEQYKSNPNAFYDSLNRILGPVVDADGISRSIMTVKYSRKATPEQMQRFQENFKRSLMQFYGNALLEYNNQGITVDPAKADDGKRASVGMKVTGNNGAVYPVQYTLENIGGEWKVRNVIVNGINIGKLFRDQFADAMQRNGNDLDKTIDGWAGEVAKAKQAADNSPEKSVKLEHHHHHH	soluble
RHQNYGVPWTPGETRQVWDVEARIEFNANGNEVKASLAAPHTQSGYTLIGESASSSGYGVSYINSDSGRRAEWSIRQAKGPQTIYYKAQFLVDPQAKVEPLPPAGDITPPTLSAPQQAAASALIDQAMSRSADNVTFARELIKTLNDPDSQNSALLLNDFDRTDALHKILLSAGVQSKIVGVIELEDGRRRQTIQPMVQVWSGKDWVLFSPNSEQKAVKPNLLVWDESNVSLLDLVGGKNSQVHFSMIKQEVTPQQATNNKVEADGLLNLSIHSLPLEEQAMFK	soluble
MSLNAEIGIDSITLSIARVTPSTHWTFVEIVDEENRIGLGEATLTGRDSELLRAASDMFPAIVDMRVDDAASWLDTLELGTIARAAVASALSHAVTDLRARIRNRSIAELLGHPVRAFIPMYANINRRTHTRSPDSFAHSARSAVAAGFSAVKIAPFDGVTLYGSDAHAQPSLIDAALERIAAVRDAVGPAVDVMVDCHWRLNAHVARQVLASDVCDGLHWLECPLPETPDRLHELRALRSLANDRGIRLAGCEEAIRAEGFMPFVEAGAYDVMMPDVKYVGSVDEMLHVAQLLGRHDVEFSPHNPSGPVAHAVSMQICSLVPNFRRMEMQFDETPYFHTLTGATVPVPDNGGAQIARTSGIGMRLDRDALDPLTIRRLQFHRACRAGELVVTEGHHHHHH	soluble
STMSGYLYRSKGSKKPWKHLWFVIKNKVLYTYAASEDVAALESQPLLGFTVTLVKDENSESKVFQLLHKGMVFYVFKADDAHSTQRWIDAFQEGTV	soluble
MAGDPMSRPPVPPFTCKTAIEKVRLAEDGWNSRDAAKVALAYTVDTRWRNRVEFATNREEAQAFLTRKWNREHEYRLIKELWAFTGNRIAVRYAYEYRDDNGQWFRAYGNENWEFAEDGLMAHRHACINEMPIAESDRLYHWPLGRRPDDHPSLTDLGLLEHHHHHH	not soluble
MHDAATSMPPQAPSTWADYLAGYRWRGQGEGCSAATVHRLEAARRPTLFVKQEVLSAHAELPAEIARLRWLHGAGIDCPQVLNETQSDGRQWLLMSAMPGDTLSALAQRDELEPERLVRLVAAALRRLHDLDPAACPFDHRLERRLDTVRQRVEAGLVDEADFDDDHRGRSATELYRLLLDRRPAVEDLVVAHGDACLPNLLAEGRRFSGFIDCGRLGVADRHQDLALAARDIEAELGAAWAEAFLVEYGGDIDGERLAYFRLLDEFF	soluble
MAENKKKNDDMATVEFESSEEVSIIPTFDKMGLREDLLRGIYAYGFEKPSAIQQRAIPAILKARDVIAQAQSGTGKTATFSISVLQSLDTQVRETQALILSPTRELAVQIQKVVLALGDYMNVQCHACIGGTNLGEDIRKLDYGQHVVSGTPGRVFDMIRRRNLRTRAIKLLVLDEADEMLNKGFKEQLYDIYRYLPPGAQVVLLSATLPHEILEMTSKFMTDPIRILVKRDELTLEGIKQFFVAVDREEWKFDTLIDLYDTLTITQAVLFCNTRRKVDWLTDKMKEANFTVSSMHGDMEQKDRDEVMKEFRAGTTRVLISTDVWARGLDVPQVSLVINYDLPNNRELYIHRIGRSGRFGRKGVAINFVKQDDVRILRDIEQYYSTQIDEMPMNIADII	not soluble
MKRIGILTSGGDAPGMNAAVRAVTRVAIANGLEVFGIRYGFAGLVAGDIFPLESEDVAHLINVSGTFLYSARYPEFAEEEGQLAGIEQLKKHGIDAVVVIGGDGSYHGALQLTRHGFNSIGLPGTIDNDIPYTDATIGYDTACMTAMDAIDKIRDTASSHHRVFIVNVMGRNCGDIAMRVGVACGADAIVIPERPYDVEEIANRLKQAQESGKDHGLVVVAEGVMTADQFMAELKKYGDFDVRANVLGHMQRGGTPTVSDRVLASKLGSEAVHLLLEGKGGLAVGIENGKVTSHDILDLFDESHRGDYDLLKLNADLSR	soluble
RVAVLVATHGNNTASSMVSVAKKLLGEGLVEGIDMPLDQSPKIVLDKLTERAKEMDMGRGLLLLVDMGSLTSFAPVISERTGIPVRSIDMVSTATVIEAVRKSNILDMELDSIYDSLKDFRGYGGYNSDDDTLDS	not soluble
MGSDKIHHHHHHLVGISHDTDQRILEQAMNMIRENGEDQLSLRKLARAIGLTTGAFYKHFATKDALLRAVTQLLSQREEAEMAQVLGQITDPEEKLLVMAAEILERFEADPHLMHFLFFNPAARDVLKVEPGQFGFYDQVIQLIKDVLRKRGITIDPQILFIQLWSFIQGYGLLIDSGITSYDPNLVRKTLKDLLEVSND	not soluble
MGSSHHHHHHSSGLVPRGSHMLEDPMGTLIRATTLSRLSFIDVVNDNGFYQFEKPKEGRKYVATLDCSEGRGQDYHALQIIDITEFPYKQVAVYHSNTTSHFILPDIVFKYLMMYNECPVYIELNSTGVSIAKSLAMDLEYDNIICDSFIDLGMKQSKRSKAMGCSALKDLIEKDKLIINHKGTIQELRTFSEKGVSWAAEEGFHDDLVMSLVIFGWLTTQEKFAEYAGKDE	soluble
MSLQVFGVSRSGYYNWVQHEPSDRKQSDERLKLEIKVAHIRTRETYGTRRLQTELAENGIIVGRDRLARLRKELRLRCKQKRKFRATTNSNHNLPVAPNLLNQTFAPTAPNQVWVADLTYVATQEGWLYLAGIKDVYTCEIVGYAMGERMTKELTGKALFMALRSQRPPAGLIHHSDRGSQYCAYDYRVIQEQFGLKTSMSRKGNCYDNAPMESFWGTLKNESLSHYRFNNRDEAISVIREYIEIFYNRQRRHSRLGNISPATFREKYHQMAAEGHHHHHH	not soluble
